Source: US8383581B2, “Short-chain peptides as parathyroid hormone (PTH) receptor agonist” (Cadila Healthcare Limited, priority 2009, dated 2013)
Where a SMILES comes first, the peptide text is derived from it. Where no end group is shown, it is not given here. [ ]: non-standard residue; d: D form. ξ: configuration not given here. Arg(NO2) = N=C(NCCC[C@H](N)C(=O)O)N[N+](=O)[O-]; αMePhe(2,6-F2) = C[C@](N)(Cc1c(F)cccc1F)C(=O)O; ξαMePhe(2,6-F2) = CC(N)(Cc1c(F)cccc1F)C(=O)O; αMePhe(2-F) = C[C@](N)(Cc1ccccc1F)C(=O)O; ξαMePhe(2-F) = CC(N)(Cc1ccccc1F)C(=O)O; hArg = N=C(N)NCCCC[C@H](N)C(=O)O; hCit = NC(=O)NCCCC[C@H](N)C(=O)O; αMeF = C[C@](N)(Cc1ccccc1)C(=O)O; Cit = NC(=O)NCCC[C@H](N)C(=O)O; Nle = CCCC[C@H](N)C(=O)O; Orn = NCCC[C@H](N)C(=O)O; Ac5c = NC1(C(=O)O)CCCC1; Ac3c = NC1(C(=O)O)CC1; Aib = CC(C)(N)C(=O)O

Assays:
[1] = Stability of peptides in human plasma; assay type: in vitro ADME; conditions: human, plasma
Method: (§1) b) Stability of Peptides in Human Plasma, Simulated Gastric Fluid, Intestinal Fluid and Liver Microsomes (Ex-Vivo): Different short-chain peptides (final concentration 2 μM) were incubated with either pooled human plasma (7.5 μL) or simulated gastric fluid (pH 1.5; composition HCl, NaCl and Pepsin) or simulated intestinal fluid (pH 7.5) or human liver microsomes, for 0, 2, 4, 6, 12 and 24 h (37° C.; 50 mM triethanolamine-HCl buffer; pH 7.8). Concentrations of human plasma/simulated gastric fluid/simulated intestinal fluid/human liver microsomes were selected in preliminary experiments to provide degradation of approximately 50% of PTH(1-34) within 1 h, therefore allowing time-dependent degradation to be viewed over 24 h. Reactions were terminated by the addition of TFA/H2O ([…], 10% (v/v)). The reaction products were then applied to a Vydac C18 analytical column (4.6×250-mm) and the major degradation fragment separated from intact short-chain peptides. The column was equilibrated with TFA/H20, at a flow rate of 1 mL/min. Using 0.1% (v/v) TFA in 70% acetonitrile/H2O, the concentration of acetonitrile in the eluting solvent was raised from 0% to 28% over 10 min and from 28% to 42% over 30 min. The absorbance was monitored at 206 nm using UV detector and peaks were collected manually prior to ESI-MS analysis. Area under the curve was measured for test peptides and their metabolites and percentage degradation were calculated at each time point over a period of 24 h. Stability study results of selected peptides, in human plasma, simulated gastric fluid, intestinal fluid and liver microsomes (in vitro) are listed in Table 4.

[2] = Stability of peptides in simulated gastric fluid (pH 1.5; HCl, NaCl and Pepsin); assay type: in vitro ADME; conditions: pH 1.5
Method: as §1

[3] = Stability of peptides in simulated intestinal fluid (pH 7.5); assay type: in vitro ADME; conditions: pH 7.5
Method: as §1

[4] = Stability of peptides in human liver microsomes; assay type: in vitro ADME; conditions: human, microsomes
Method: as §1

[5] = target: T1, rat PTH-1R (rat PTHR endogenously expressed on UMR-106 rat osteosarcoma cells) (rat, UniProt P25961 27-591); assay: cell-based or functional assay
T1 sequence (looked up): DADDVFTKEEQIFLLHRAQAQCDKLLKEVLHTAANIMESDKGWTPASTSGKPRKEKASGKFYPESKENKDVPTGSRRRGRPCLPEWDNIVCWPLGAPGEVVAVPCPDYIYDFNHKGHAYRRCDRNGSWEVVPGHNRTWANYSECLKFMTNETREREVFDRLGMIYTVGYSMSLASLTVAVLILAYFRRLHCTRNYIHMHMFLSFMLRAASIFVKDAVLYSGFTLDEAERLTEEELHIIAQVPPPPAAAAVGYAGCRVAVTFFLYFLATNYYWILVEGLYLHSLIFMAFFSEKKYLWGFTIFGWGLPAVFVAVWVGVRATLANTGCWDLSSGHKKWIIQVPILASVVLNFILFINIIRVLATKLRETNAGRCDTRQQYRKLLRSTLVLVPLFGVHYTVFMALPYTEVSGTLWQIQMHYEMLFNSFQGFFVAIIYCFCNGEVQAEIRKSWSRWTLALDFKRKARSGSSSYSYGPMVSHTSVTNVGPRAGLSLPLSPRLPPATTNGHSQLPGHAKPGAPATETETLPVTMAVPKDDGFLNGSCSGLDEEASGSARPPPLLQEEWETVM

Molecule	cAMP released with respect to control, 1 nM peptide, UMR-106 cells [5]	cAMP released with respect to control, 10 nM peptide, UMR-106 cells [5]	cAMP released with respect to control, 100 nM peptide, UMR-106 cells [5]	other results
CCCC[C@H](NC(=O)C(C)(Cc1ccccc1F)NC(=O)[C@H](CCC(N)=O)NC(=O)[C@@H](NC(=O)[C@H](CCC(=O)O)NC(=O)C(C)(C)NC(=O)[C@@H](NC(=O)C(C)(C)N)C(C)C)[C@@H](C)CC)C(=O)N[C@@H](Cc1c[nH]cn1)C(=O)N[C@@H](CCC(N)=O)C(=O)N[C@@H](CCCN)C(=O)NC(C)(C)C(=O)N[C@@H](CCCNC(N)=O)C(=O)NC(C)(Cc1c(F)cccc1F)C(N)=O (some centres unmarked) [Seq. ID. 290] (H-[Aib]V[Aib]EIQ[ξαMePhe(2-F)][Nle]HQ[Orn][Aib][Cit][ξαMePhe(2,6-F2)]-NH2)	–	–	–	half-life (t1/2) in human plasma [1]: (9) h; metabolised at 24 h, 2 μM ([1]; pH 7.8): 75%; % degradation of peptides in 24 h when incubated with simulated gastric fluid ([2]; simulated gastric fluid, 24 h, 2 μM): 100%; half-life ([2]; simulated gi fluid): 30 min; half-life ([3]; simulated gi fluid): 30 min; % degradation of peptides in 24 h when incubated with simulated intestinal fluid ([3]; simulated intestinal fluid, 24 h, 2 μM): 100%; half-life [4]: 30 min; % degradation of peptides in 24 h when incubated with liver microsomes ([4]; 24 h, 2 μM, pH 7.8): 100%
[Ac3c]V[Aib]EIQL[Nle]HQ[hArg][Aib]K[αMeF] [Seq. ID. 15]	28 percent of control	78 percent of control	99 percent of control	–
[Aib]V[Aib]EIQ[αMePhe(2,6-F2)][Nle]HQ[hArg]A[Arg(NO2)][αMePhe(2,6-F2)] [Seq. ID. 271]	46 percent of control	108 percent of control	116 percent of control	–
[Ac5c]V[Aib]EIQ[αMePhe(2-F)][Nle]HQ[Cit][Aib][Aib][αMePhe(2,6-F2)] [Seq. ID. 372]	32 percent of control	71 percent of control	99 percent of control	–
[Aib]V[Aib]EIQ[αMePhe(2,6-F2)][Nle]HQ[hCit]A[Arg(NO2)][αMePhe(2-F)] [Seq. ID. 461]	56 percent of control	101 percent of control	126 percent of control	–
[Ac5c]V[Aib]EIQ[αMePhe(2-F)][Nle]HQ[Orn][Aib][Cit][αMePhe(2,6-F2)] [Seq. ID. 292]	39 percent of control	104 percent of control	120 percent of control	–
[Aib]V[Aib]EIQ[αMePhe(2,6-F2)][Nle]HQ[Cit]A[Arg(NO2)][αMePhe(2-F)] [Seq. ID. 397]	38 percent of control	102 percent of control	117 percent of control	–
[Aib]V[Aib]EIQ[αMePhe(2-F)][Nle]HQ[Cit][Aib][Cit][αMePhe(2-F)] [Seq. ID. 346]	21 percent of control	51 percent of control	69 percent of control	–
[Ac5c]V[Aib]EIQ[αMePhe(2,6-F2)][Nle]HQ[Cit]A[Cit][αMePhe(2-F)] [Seq. ID. 351]	38 percent of control	79 percent of control	119 percent of control	–
[Aib]V[Aib]EIQ[αMePhe(2-F)][Nle]HQ[Orn][Aib][Arg(NO2)][αMePhe(2-F)] [Seq. ID. 330]	18 percent of control	51 percent of control	72 percent of control	–
[Aib]V[Ac5c]EIQ[αMePhe(2,6-F2)][Nle]HQ[hArg][Aib][Arg(NO2)][αMePhe(2-F)] [Seq. ID. 256]	28 percent of control	71 percent of control	87 percent of control	–
[Ac5c]V[Ac5c]EIQ[αMePhe(2,6-F2)][Nle]HQ[hArg][Aib][αMePhe(2,6-F2)][αMePhe(2,6-F2)] [Seq. ID. 238]	38 percent of control	91 percent of control	120 percent of control	–
[Ac5c]V[Aib]EIQ[αMePhe(2-F)][Nle]HQ[hCit][Aib][αMePhe(2,6-F2)][αMePhe(2-F)] [Seq. ID. 444]	26 percent of control	67 percent of control	81 percent of control	–
[Ac5c]V[Aib]EIQ[αMePhe(2,6-F2)][Nle]HQ[Orn]A[Aib][αMePhe(2,6-F2)] [Seq. ID. 311]	26 percent of control	68 percent of control	86 percent of control	–
[Aib]V[Aib]EIQ[αMePhe(2,6-F2)][Nle]HQ[hCit]A[Aib][αMePhe(2-F)] [Seq. ID. 429]	39 percent of control	101 percent of control	120 percent of control	–
[Ac5c]V[Ac5c]EIQ[αMePhe(2,6-F2)][Nle]HQ[hArg][Aib][Aib][αMePhe(2,6-F2)] [Seq. ID. 198]	32 percent of control	71 percent of control	99 percent of control	–
[Aib]V[Aib]EIQ[αMePhe(2,6-F2)][Nle]HQ[hArg][Aib][αMePhe(2,6-F2)][αMePhe(2-F)] [Seq. ID. 212]	34 percent of control	88 percent of control	116 percent of control	–
[Aib]V[Aib]EIQ[αMePhe(2-F)][Nle]HQ[hCit][Aib][Cit][αMePhe(2,6-F2)] [Seq. ID. 418]	29 percent of control	52 percent of control	69 percent of control	–
[Aib]V[Aib]EIQ[αMePhe(2,6-F2)][Nle]HQ[Orn]A[αMePhe(2,6-F2)][αMePhe(2,6-F2)] [Seq. ID. 325]	38 percent of control	98 percent of control	116 percent of control	–
